Assay results from the supplement of paper PMC6755084.

B1: F1*; the commonest letter at each place (parent)
chain: GAGACCGCAACTGAAAAGTTGTTATCACTTGTCGTAAGACACTTTGGATGGGTTGAAGTTCTGCACGTAGAAGCAAAAGGC

Variants of: B1
Test: fraction ligated after 30 min (ligated reads / total reads); higher = more ligase activity
Conditions: with F1*sub RNA substrate (template-directed ligation), 42 °C
Procedure: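 Chip-synthesised pool of F1* ligase ribozyme variants (all single and double substitutions, single, double and triple deletions in the catalytic core and GAA bulge, plus designed variants) was transcribed with T7 and reacted as a pool with excess substrate F1*sub for 30 min at 42 C in 50 mM EPPS pH 8.5, 25 mM MgCl2. Ligated and unligated bands were separated by PAGE, barcoded by RT and deep sequenced; fraction ligated = ligated reads / total reads per variant, relative activity = FL / FL of wild type (0.826). Sequences are the DNA template of the ribozyme.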

Variant | fraction ligated
T23G C26G | 0.74
T23G C26A | 0.789
T23G C26T | 0.82
A24G T29G | 0.811
A24G T29C | 0.741
A24G T29A | 0.807
A24C G46T | 0.0441
A24C G46C | 0.043
A24C G46A | 0.335
A24C A56C | 0.0226
A24C A56T | 0.0488
A24C A56G | 0.0302
T23G G46T | 0.759
T23G G46C | 0.803
T23G G46A | 0.809
A24C G47C | 0.00476
A24C G47T | 0.0249
A24C G47A | 0.806
T23G A37G | 0.867
T23G A37C | 0.819
T23G A37T | 0.821
T23C T29G | 0.766
T23C T29C | 0.779
T23C T29A | 0.82

Variant | fraction ligated
A24C C40A | 0.165
A24C C40G | 0.348
A24C C40T | 0.707
T23G A57T | 0.812
T23G A57C | 0.779
T23G A57G | 0.819
A24G C33A | 0.746
A24G C33G | 0.785
A24G C33T | 0.832
T23C T44A | 0.817
T23C T44G | 0.779
T23C T44C | 0.8
A24G C28T | 0.743
A24G C28A | 0.719
A24G C28G | 0.701
A24G T25A | 0.697
A24G T25C | 0.765
A24G T25G | 0.368
A24C A41T | 0.614
A24C A41C | 0.00606
A24C A41G | 0.608
A24G A57C | 0.632
A24G A57T | 0.728
A24G A57G | 0.762

Variant | fraction ligated
T23G A41T | 0.792
T23G A41C | 0.727
T23G A41G | 0.746
A24C T45C | 0.0358
A24C T45A | 0.152
A24C T45G | 0.0118
T23C T45G | 0.027
T23C T45A | 0.266
T23C T45C | 0.208
T23G T29G | 0.797
T23G T29A | 0.824
T23G T29C | 0.784
A24C A57C | 0.368
A24C A57T | 0.55
A24C A57G | 0.633
A24C G55C | 0.158
A24C G55T | 0.0793
A24C G55A | 0.649
A24C T32G | 0.144
A24C T32C | 0.062
A24C T32A | 0.0611
T23C C42G | 0.761
T23C C42A | 0.762
T23C C42T | 0.804

Variant | fraction ligated
A24G A37G | 0.852
A24G A37C | 0.796
A24G A37T | 0.764
A24G A36C | 0.833
A24G A36T | 0.789
A24G A36G | 0.813
T23C G50T | 0.782
T23C G50A | 0.632
T23C G50C | 0.258
T23G G50T | 0.728
T23G G50C | 0.401
T23G G50A | 0.633
T23C C28T | 0.777
T23C C28G | 0.732
T23C C28A | 0.73
A24G G55C | 0.18
A24G G55A | 0.685
A24G G55T | 0.629
A24C T43C | 0.231
A24C T43G | 0.792
A24C T43A | 0.625
T23C A57C | 0.81
T23C A57G | 0.851
T23C A57T | 0.794

Variant | fraction ligated
A24G C26A | 0.711
A24G C26T | 0.728
A24G C26G | 0.268
T23C A48C | 0.697
T23C A48G | 0.696
T23C A48T | 0.0663
T23C T25A | 0.582
T23C T25G | 0.672
T23C T25C | 0.782
A24G T30C | 0.693
A24G T30G | 0.79
A24G T30A | 0.745
A24C T44A | 0.759
A24C T44G | 0.292
A24C T44C | 0.563
T23G A56G | 0.792
T23G A56T | 0.772
T23G A56C | 0.794
T23G A48G | 0.788
T23G A48T | 0.781
T23G A48C | 0.74
A24C C28T | 0.786
A24C C28G | 0.742
A24C C28A | 0.727

Variant | fraction ligated
A24G | 0.777
A24C | 0.747
T23C C33G | 0.819
T23C C33T | 0.839
T23C C33A | 0.786
A24G G46A | 0.803
A24G G46T | 0.621
A24G G46C | 0.765
A24G G47A | 0.684
A24G G47T | 0.0352
A24G G47C | 0.0125
T23G T45A | 0.795
T23G T45C | 0.781
T23G T45G | 0.523
T23G A27T | 0.801
T23G A27G | 0.788
T23G A27C | 0.785
T23G T43A | 0.811
T23G T43C | 0.747
T23G T43G | 0.821
A24C T25C | 0.793
A24C T25A | 0.793
A24C T25G | 0.787
A24C T30A | 0.414

Variant | fraction ligated
A24C T30C | 0.168
A24C T30G | 0.57
T23G G38C | 0.808
T23G G38T | 0.81
T23G G38A | 0.803
A24C A36T | 0.767
A24C A36C | 0.763
A24C A36G | 0.0223
A24C A39T | 0.197
A24C A39C | 0.131
A24C A39G | 0.774
T23C T49A | 0.792
T23C T49C | 0.715
T23C T49G | 0.78
T23G T44A | 0.842
T23G T44C | 0.802
T23G T44G | 0.86
A24G G38C | 0.695
A24G G38A | 0.752
A24G G38T | 0.745
A24G C42A | 0.796
A24G C42T | 0.802
A24G C42G | 0.795
T23C G38T | 0.803

Variant | fraction ligated
T23C G38A | 0.815
T23C G38C | 0.802
A24C A27C | 0.557
A24C A27G | 0.692
A24C A27T | 0.668
T23G A36T | 0.841
T23G A36G | 0.885
T23G A36C | 0.882
T23C G47A | 0.806
T23C G47C | 0.0373
T23C G47T | 0.0952
T23G G55A | 0.832
T23G G55T | 0.826
T23G G55C | 0.809
T23C T43C | 0.759
T23C T43G | 0.745
T23C T43A | 0.815
A24C G38A | 0.508
A24C G38C | 0.274
A24C G38T | 0.468
A24G A41C | 0.034
A24G A41G | 0.691
A24G A41T | 0.701
T23G C28G | 0.791

Variant | fraction ligated
T23G C28A | 0.789
T23G C28T | 0.782
T23C G55C | 0.469
T23C G55T | 0.786
T23C G55A | 0.783
A24C C33G | 0.4
A24C C33A | 0.147
A24C C33T | 0.697
T23G A39T | 0.79
T23G A39C | 0.776
T23G A39G | 0.867
A24C T49A | 0.805
A24C T49G | 0.806
A24C T49C | 0.731
T23G T30G | 0.8
T23G T30A | 0.808
T23G T30C | 0.765
T23C A41T | 0.808
T23C A41C | 0.783
T23C A41G | 0.784
T23G A24T | 0.794
T23G A24C | 0.773
T23G A24G | 0.091
A24G C40A | 0.731

Variant | fraction ligated
A24G C40T | 0.84
A24G C40G | 0.802
A24G G34A | 0.763
A24G G34T | 0.729
A24G G34C | 0.73
T23G T32G | 0.842
T23G T32A | 0.858
T23G T32C | 0.75
T23G A24C A27G C28A C42G G47A | 0.812
A24G A27T | 0.126
A24G A27G | 0.701
A24G A27C | 0.776
T23C G46A | 0.8
T23C G46T | 0.614
T23C G46C | 0.738
T23G C33T | 0.893
T23G C33G | 0.848
T23G C33A | 0.866
A24C G34A | 0.727
A24C G34T | 0.648
A24C G34C | 0.185
A24C T29C | 0.28
A24C T29G | 0.766
A24C T29A | 0.747

Variant | fraction ligated
A24G G50C | 0.257
A24G G50A | 0.449
A24G G50T | 0.491
A24C G31T | 0.0308
A24C G31C | 0.038
A24C G31A | 0.0336
T23G T35G | 0.86
T23G T35C | 0.827
T23G T35A | 0.834
A24G A48G | 0.762
A24G A48C | 0.729
A24G A48T | 0.0442
T23C T35C | 0.818
T23C T35A | 0.845
T23C T35G | 0.83
A24C T35A | 0.782
A24C T35C | 0.764
A24C T35G | 0.759
T23C T30G | 0.833
T23C T30A | 0.802
T23C T30C | 0.789
T23C C26A | 0.371
T23C C26T | 0.779
T23C C26G | 0.136

Variant | fraction ligated
A24G T32C | 0.369
A24G T32G | 0.589
A24G T32A | 0.591
T23C G34C | 0.774
T23C G34A | 0.819
T23C G34T | 0.804
A24G A56T | 0.0729
A24G A56C | 0.0669
A24G A56G | 0.0845
A24G A39C | 0.504
A24G A39T | 0.664
A24G A39G | 0.827
T23C G31A | 0.619
T23C G31C | 0.666
T23C G31T | 0.787
A24C C26G | 0.419
A24C C26T | 0.0218
A24C C26A | 0.417
A24C C42T | 0.779
A24C C42A | 0.779
A24C C42G | 0.775
A24C A48C | 0.186
A24C A48T | 0.0426
A24C A48G | 0.614

Variant | fraction ligated
T23C A56T | 0.802
T23C A56C | 0.518
T23C A56G | 0.698
T23G G34A | 0.802
T23G G34T | 0.794
T23G G34C | 0.799
T23C C40A | 0.792
T23C C40T | 0.811
T23C C40G | 0.766
T23G T25A | 0.78
T23G T25G | 0.738
T23G T25C | 0.781
T23G C42G | 0.829
T23G C42T | 0.838
T23G C42A | 0.835
T23G | 0.855
T23G T49C | 0.748
T23G T49G | 0.761
T23G T49A | 0.766
A24C G50A | 0.431
A24C G50T | 0.646
A24C G50C | 0.532
T23G C40G | 0.812
T23G C40A | 0.873

Variant | fraction ligated
T23G C40T | 0.864
T23G G47T | 0.346
T23G G47C | 0.0263
T23G G47A | 0.79
T23C T32A | 0.821
T23C T32C | 0.788
T23C T32G | 0.827
A24G T35G | 0.774
A24G T35A | 0.786
A24G T35C | 0.776
A24G G31C | 0.181
A24G G31T | 0.331
A24G G31A | 0.202
A24C A37T | 0.754
A24C A37C | 0.716
A24C A37G | 0.626
T23G G31A | 0.849
T23G G31T | 0.868
T23G G31C | 0.849
T23C A39G | 0.831
T23C A39T | 0.803
T23C A39C | 0.788
